As a reminder, the IC50 is the midpoint of a concentration-inhibition curve.

The results in this text go back to publication PMC3585228, “Consequences of ChemR23 Heteromerization with the Chemokine Receptors CXCR4 and CCR7” (PLoS ONE, 2013).

For one experiment, the target named is T1, CXCR4-hRLuc / CXCR4-EYFP (human, UniProt P61073 1-352).
T1 construct: chemokine receptor CXCR4; cDNA in pcDNA3.1, fusion at its 3' end; Two constructs, each with ONE of the two fusions: CXCR4-hRLuc (donor) and CXCR4-EYFP (acceptor); source: HEK-293T, transfected (calcium phosphate), in living cells; not shown: hRLuc (humanized Renilla luciferase), C-terminal, kept; EYFP, C-terminal, kept
T1 sequence (P61073 whole entry, the tested form may be a part): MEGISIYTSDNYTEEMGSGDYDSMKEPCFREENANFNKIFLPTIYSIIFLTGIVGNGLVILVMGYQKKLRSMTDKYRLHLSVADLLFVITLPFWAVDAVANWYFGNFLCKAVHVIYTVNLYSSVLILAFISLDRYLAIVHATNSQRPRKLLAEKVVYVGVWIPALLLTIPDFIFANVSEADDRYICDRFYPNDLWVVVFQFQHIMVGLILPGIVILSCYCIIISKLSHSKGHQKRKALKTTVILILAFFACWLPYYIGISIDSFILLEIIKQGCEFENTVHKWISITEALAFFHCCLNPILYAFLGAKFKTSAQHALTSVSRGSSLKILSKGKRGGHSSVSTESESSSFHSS
As to the kind of experiment: FRET or BRET; BRET titration in HEK293T cells: constant amount of the hRLuc donor construct, increasing amounts of the EYFP acceptor construct; signal recorded 5 minutes after coelenterazine H. The settings on record: partners not purified. (BRET reads energy transfer from a luciferase to a nearby fluorophore.)

The next experiment addresses T2, CCR7-hRLuc / CCR7-EYFP (human, UniProt P32248 25-378).
T2 construct: chemokine receptor CCR7; cDNA in pcDNA3.1, fusion at its 3' end; Two constructs, each with ONE of the two fusions: CCR7-hRLuc (donor) and CCR7-EYFP (acceptor); source: HEK-293T, transfected (calcium phosphate), in living cells; not shown: hRLuc (humanized Renilla luciferase), C-terminal, kept; EYFP, C-terminal, kept
T2 sequence (looked up): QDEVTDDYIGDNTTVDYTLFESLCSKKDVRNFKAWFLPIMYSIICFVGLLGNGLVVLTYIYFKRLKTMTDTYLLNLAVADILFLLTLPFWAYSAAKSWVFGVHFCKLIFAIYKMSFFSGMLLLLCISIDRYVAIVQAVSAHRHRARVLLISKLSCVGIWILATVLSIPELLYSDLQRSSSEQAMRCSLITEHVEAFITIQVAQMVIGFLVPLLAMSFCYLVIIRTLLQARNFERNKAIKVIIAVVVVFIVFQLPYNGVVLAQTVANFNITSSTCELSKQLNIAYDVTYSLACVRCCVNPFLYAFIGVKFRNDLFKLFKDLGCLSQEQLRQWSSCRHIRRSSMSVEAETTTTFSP
Described as above. The settings on record: partners not purified.

Experiment [1] has as its target T3, CCR7 on CHO-K1 cells (human, UniProt P32248 25-378).
T3 sequence (looked up): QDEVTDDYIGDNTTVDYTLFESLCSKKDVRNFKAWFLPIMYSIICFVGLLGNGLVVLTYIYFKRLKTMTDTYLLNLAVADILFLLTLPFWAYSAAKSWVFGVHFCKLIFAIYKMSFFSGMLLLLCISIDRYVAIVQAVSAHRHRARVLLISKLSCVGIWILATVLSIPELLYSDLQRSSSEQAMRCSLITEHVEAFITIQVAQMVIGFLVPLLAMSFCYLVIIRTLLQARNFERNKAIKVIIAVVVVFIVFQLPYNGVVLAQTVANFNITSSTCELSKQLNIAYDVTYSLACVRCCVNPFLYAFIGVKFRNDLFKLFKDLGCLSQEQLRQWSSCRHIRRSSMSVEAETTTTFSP
As to the kind of experiment: cell-based or functional assay.

The target in experiment [2] is T3, CCR7 on CHO-K1 cells. As to the kind of experiment: radioligand binding; competition on CHO-K1 cells expressing CCR7 only (methods: membrane preparations); tracer 0.1 nM 125I-CCL19; 50 mM Hepes pH 7.4, 1 mM CaCl2, 5 mM MgCl2, 0.5% BSA; one hour; filtration. The settings on record: one partner purified.
Experiment [3] addresses T3, CCR7 on CHO-K1 cells. As to the kind of experiment: radioligand binding; competition on CHO-K1 cells co-expressing ChemR23 and CCR7; tracer 0.1 nM 125I-CCL19; competitors CCL19 (homologous) or chemerin (heterologous, cross-competition); same buffer, one hour, filtration. The settings on record: one partner purified.
Experiment [4] addresses T3, CCR7 on CHO-K1 cells. Nature of the experiment: radioligand binding; competition on CHO-K1 cells co-expressing ChemR23 and CCR7; tracer 0.1 nM 125I-[145-157]-chemerin; competitors chemerin (homologous) or CCL19 (heterologous, cross-competition); same buffer, one hour, filtration. The settings on record: one partner purified.

B1: ChemR23-hRLuc / ChemR23-EYFP (receptor, human, UniProt Q99788 1-373, looked up)
chain: MRMEDEDYNTSISYGDEYPDYLDSIVVLEDLSPLEARVTRIFLVVVYSIVCFLGILGNGLVIIIATFKMKKTVNMVWFLNLAVADFLFNVFLPIHITYAAMDYHWVFGTAMCKISNFLLIHNMFTSVFLLTIISSDRCISVLLPVWSQNHRSVRLAYMACMVIWVLAFFLSSPSLVFRDTANLHGKISCFNNFSLSTPGSSSWPTHSQMDPVGYSRHMVVTVTRFLCGFLVPVLIITACYLTIVCKLQRNRLAKTKKPFKIIVTIIITFFLCWCPYHTLNLLELHHTAMPGSVFSLGLPLATALAIANSCMNPILYVFMGQDFKKFKVALFSRLVNALSEDTGHSSYPSHRSFTKMSSMNERTSMNERETGML
notes: ChemR23, the receptor of chemerin; cDNA in pcDNA3.1, fusion at its 3' end; Two constructs, each with ONE of the two fusions: ChemR23-hRLuc (BRET donor) and ChemR23-EYFP (BRET acceptor); source: HEK-293T, transfected (calcium phosphate), in living cells; not shown: hRLuc (humanized Renilla luciferase), C-terminal, kept; EYFP, C-terminal, kept
Take B1: the “BRET50, fold against the CXCR4 homomer” value in the experiment with CXCR4-hRLuc / CXCR4-EYFP stood at 2 fold. The “BRET50, fold against the CCR7 homomer” value in the experiment with CCR7-hRLuc / CCR7-EYFP was 2 fold.

B2: CCL19 (unlabelled) (ligand, UniProt Q99731 22-98, looked up)
chain: GTNDAEDCCLSVTQKPIPGYIVRNFHYLLIKDGCRVPAVVFTTLRGRQLCAPPDQPWVERIIQRLQRTSAKMKRRSS
notes: chemokine CCL19, the CCR7-specific ligand
For the molecule B2, in the experiment with CCR7 on CHO-K1 cells [1], the “EC50 of calcium mobilization (aequorin assay), CHO-K1 cells expressing CCR7 only” value came out at 7.66 nM. Moreover, the IC50 in the experiment with CCR7 on CHO-K1 cells [2] worked out at 2.42 nM; in the experiment with CCR7 on CHO-K1 cells [3], 0.27 nM; with CCR7 on CHO-K1 cells [4] it was 6.85 nM.
